T1: PAN (Methanocaldococcus jannaschii, UniProt Q58576)
T1 construct: recombinant from pRSETA, homohexamer
T1 sequence (Q58576 1-430): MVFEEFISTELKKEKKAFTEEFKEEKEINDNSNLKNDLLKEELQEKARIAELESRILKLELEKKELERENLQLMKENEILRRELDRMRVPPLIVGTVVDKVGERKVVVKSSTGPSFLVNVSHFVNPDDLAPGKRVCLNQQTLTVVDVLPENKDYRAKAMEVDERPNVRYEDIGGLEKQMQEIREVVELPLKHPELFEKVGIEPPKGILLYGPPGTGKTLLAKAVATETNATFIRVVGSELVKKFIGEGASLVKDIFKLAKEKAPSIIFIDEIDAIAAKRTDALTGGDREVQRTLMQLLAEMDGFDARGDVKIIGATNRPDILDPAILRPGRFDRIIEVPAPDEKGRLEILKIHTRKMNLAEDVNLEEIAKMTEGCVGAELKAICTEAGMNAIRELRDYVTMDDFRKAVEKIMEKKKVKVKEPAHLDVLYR


Legend:
PAN = molecular target: T1, PAN; assay: NADH-coupled ATPase assay, Hill equation; assay type: biochemical; conditions: 50 mM Tris-HCl pH 7.5, 5 mM MgCl2; 100 nM PAN
Text: NADH-coupled ATPase assay, Hill equation on PAN | Vmax, KM and Hill coefficient (h) values were obtained by nonlinear regression analysis

archaeal 20S proteasome = archaeal 20S proteasome (UniProt P25156)
[1] = molecular target: the molecule itself; assay: native gel or EMSA; native gel of the PAN mutants; conditions not given

archaeal 20S proteasome, sequence (P25156 whole entry, chain 1 of 2): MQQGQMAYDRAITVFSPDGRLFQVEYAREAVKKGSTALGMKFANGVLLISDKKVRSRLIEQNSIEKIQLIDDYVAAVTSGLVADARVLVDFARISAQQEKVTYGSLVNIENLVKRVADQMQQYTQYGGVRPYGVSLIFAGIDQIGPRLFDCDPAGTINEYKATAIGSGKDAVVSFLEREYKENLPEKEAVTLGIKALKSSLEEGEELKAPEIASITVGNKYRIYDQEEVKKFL
archaeal 20S proteasome, sequence (chain, as listed by the source, chain 2 of 2): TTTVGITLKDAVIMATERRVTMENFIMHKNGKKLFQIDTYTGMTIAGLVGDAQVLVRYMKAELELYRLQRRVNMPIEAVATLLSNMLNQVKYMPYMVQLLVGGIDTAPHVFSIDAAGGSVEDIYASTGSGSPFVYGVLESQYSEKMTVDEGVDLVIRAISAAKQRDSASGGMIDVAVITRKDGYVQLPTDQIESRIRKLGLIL

| Molecule | stoichiometry N [1] | also measured |
| --- | --- | --- |
| Nc1ncnc2c1ncn2[C@@H]1O[C@H](COP(=O)(O)OP(=O)(O)OP(=O)(O)O)[C@@H](O)[C@H]1O [ATP] |  | Km (PAN): 261 ± 8 µM |
| PAN wild type (enzyme) MVFEEFISTELKKEKKAFTEEFKEEKEINDNSNLKNDLLKEELQEKARIAELESRILKLELEKKELERENLQLMKENEILRRELDRMRVPPLIVGTVVDKVGERKVVVKSSTGPSFLVNVSHFVNPDDLAPGKRVCLNQQTLTVVDVLPENKDYRAKAMEVDERPNVRYEDIGGLEKQMQEIREVVELPLKHPELFEKVGIEPPKGILLYGPPGTGKTLLAKAVATETNATFIRVVGSELVKKFIGEGASLVKDIFKLAKEKAPSIIFIDEIDAIAAKRTDALTGGDREVQRTLMQLLAEMDGFDARGDVKIIGATNRPDILDPAILRPGRFDRIIEVPAPDEKGRLEILKIHTRKMNLAEDVNLEEIAKMTEGCVGAELKAICTEAGMNAIRELRDYVTMDDFRKAVEKIMEKKKVKVKEPAHLDVLYR |  | LFP peptide hydrolysis by the 20S (20 nM) with PAN (80 nM) and 10 μM ATPγS (gate opening) (archaeal 20S proteasome): 9 fold |
| PAN-R331A (enzyme, UniProt Q58576 1-430, looked up, PAN, archaeal proteasomal ATPase; Vector pRSETA; source: expression vector in pRSETA made by site-directed mutagenesis) MVFEEFISTELKKEKKAFTEEFKEEKEINDNSNLKNDLLKEELQEKARIAELESRILKLELEKKELERENLQLMKENEILRRELDRMRVPPLIVGTVVDKVGERKVVVKSSTGPSFLVNVSHFVNPDDLAPGKRVCLNQQTLTVVDVLPENKDYRAKAMEVDERPNVRYEDIGGLEKQMQEIREVVELPLKHPELFEKVGIEPPKGILLYGPPGTGKTLLAKAVATETNATFIRVVGSELVKKFIGEGASLVKDIFKLAKEKAPSIIFIDEIDAIAAKRTDALTGGDREVQRTLMQLLAEMDGFDARGDVKIIGATNRPDILDPAILRPGAFDRIIEVPAPDEKGRLEILKIHTRKMNLAEDVNLEEIAKMTEGCVGAELKAICTEAGMNAIRELRDYVTMDDFRKAVEKIMEKKKVKVKEPAHLDVLYR | 6 |  |
| PAN-R328/331A (enzyme, UniProt Q58576 1-430, looked up, PAN, archaeal proteasomal ATPase; Vector pRSETA; also called double mutant; double-arginine mutant; source: expression vector in pRSETA made by site-directed mutagenesis) MVFEEFISTELKKEKKAFTEEFKEEKEINDNSNLKNDLLKEELQEKARIAELESRILKLELEKKELERENLQLMKENEILRRELDRMRVPPLIVGTVVDKVGERKVVVKSSTGPSFLVNVSHFVNPDDLAPGKRVCLNQQTLTVVDVLPENKDYRAKAMEVDERPNVRYEDIGGLEKQMQEIREVVELPLKHPELFEKVGIEPPKGILLYGPPGTGKTLLAKAVATETNATFIRVVGSELVKKFIGEGASLVKDIFKLAKEKAPSIIFIDEIDAIAAKRTDALTGGDREVQRTLMQLLAEMDGFDARGDVKIIGATNRPDILDPAILAPGAFDRIIEVPAPDEKGRLEILKIHTRKMNLAEDVNLEEIAKMTEGCVGAELKAICTEAGMNAIRELRDYVTMDDFRKAVEKIMEKKKVKVKEPAHLDVLYR | 6 |  |
| PAN-R328A (enzyme, UniProt Q58576 1-430, looked up, PAN, archaeal proteasomal ATPase; Vector pRSETA; source: expression vector in pRSETA made by site-directed mutagenesis) MVFEEFISTELKKEKKAFTEEFKEEKEINDNSNLKNDLLKEELQEKARIAELESRILKLELEKKELERENLQLMKENEILRRELDRMRVPPLIVGTVVDKVGERKVVVKSSTGPSFLVNVSHFVNPDDLAPGKRVCLNQQTLTVVDVLPENKDYRAKAMEVDERPNVRYEDIGGLEKQMQEIREVVELPLKHPELFEKVGIEPPKGILLYGPPGTGKTLLAKAVATETNATFIRVVGSELVKKFIGEGASLVKDIFKLAKEKAPSIIFIDEIDAIAAKRTDALTGGDREVQRTLMQLLAEMDGFDARGDVKIIGATNRPDILDPAILAPGRFDRIIEVPAPDEKGRLEILKIHTRKMNLAEDVNLEEIAKMTEGCVGAELKAICTEAGMNAIRELRDYVTMDDFRKAVEKIMEKKKVKVKEPAHLDVLYR | 6 |  |
